We go through ten molecules from patent publication US20230272045A1 (MONASH UNIVERSITY, published 2023).

For experiment [1], the target named is T1, human fibrinogen (human, UniProt P02671 20-644; P02675 31-491; P02679 27-437, limits assumed).
T1 construct: Coated on ELISA plates at 100 nM; also called Fg
T1 sequence (looked up) 1: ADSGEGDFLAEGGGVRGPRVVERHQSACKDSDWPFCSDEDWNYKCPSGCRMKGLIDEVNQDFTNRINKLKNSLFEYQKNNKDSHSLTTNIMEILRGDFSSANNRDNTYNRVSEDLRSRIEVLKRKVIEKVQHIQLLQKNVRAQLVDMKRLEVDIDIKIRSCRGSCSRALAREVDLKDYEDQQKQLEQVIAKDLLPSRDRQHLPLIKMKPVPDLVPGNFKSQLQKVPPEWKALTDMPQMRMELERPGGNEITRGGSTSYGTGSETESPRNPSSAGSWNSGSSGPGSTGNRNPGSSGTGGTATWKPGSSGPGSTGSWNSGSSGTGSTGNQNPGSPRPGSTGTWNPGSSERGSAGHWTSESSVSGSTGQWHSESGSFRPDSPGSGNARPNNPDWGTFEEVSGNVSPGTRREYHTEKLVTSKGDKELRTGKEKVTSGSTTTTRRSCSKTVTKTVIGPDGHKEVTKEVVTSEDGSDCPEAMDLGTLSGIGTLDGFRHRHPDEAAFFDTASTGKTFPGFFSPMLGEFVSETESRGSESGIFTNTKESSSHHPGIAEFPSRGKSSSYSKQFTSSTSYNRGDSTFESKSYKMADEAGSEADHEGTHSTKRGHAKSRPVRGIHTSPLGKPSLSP
T1 sequence (looked up) 2: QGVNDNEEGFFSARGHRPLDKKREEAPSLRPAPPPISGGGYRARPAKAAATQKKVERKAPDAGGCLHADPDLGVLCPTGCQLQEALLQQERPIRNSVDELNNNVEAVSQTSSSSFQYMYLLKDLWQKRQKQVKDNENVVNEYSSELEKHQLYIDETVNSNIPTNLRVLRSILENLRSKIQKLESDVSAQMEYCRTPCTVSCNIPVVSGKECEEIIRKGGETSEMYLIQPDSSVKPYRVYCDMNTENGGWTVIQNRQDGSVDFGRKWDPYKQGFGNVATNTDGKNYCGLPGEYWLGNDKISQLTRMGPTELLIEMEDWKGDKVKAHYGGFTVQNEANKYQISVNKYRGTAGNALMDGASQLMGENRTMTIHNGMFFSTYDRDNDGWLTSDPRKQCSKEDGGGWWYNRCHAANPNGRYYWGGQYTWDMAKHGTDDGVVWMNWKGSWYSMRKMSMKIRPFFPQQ
T1 sequence (looked up) 3: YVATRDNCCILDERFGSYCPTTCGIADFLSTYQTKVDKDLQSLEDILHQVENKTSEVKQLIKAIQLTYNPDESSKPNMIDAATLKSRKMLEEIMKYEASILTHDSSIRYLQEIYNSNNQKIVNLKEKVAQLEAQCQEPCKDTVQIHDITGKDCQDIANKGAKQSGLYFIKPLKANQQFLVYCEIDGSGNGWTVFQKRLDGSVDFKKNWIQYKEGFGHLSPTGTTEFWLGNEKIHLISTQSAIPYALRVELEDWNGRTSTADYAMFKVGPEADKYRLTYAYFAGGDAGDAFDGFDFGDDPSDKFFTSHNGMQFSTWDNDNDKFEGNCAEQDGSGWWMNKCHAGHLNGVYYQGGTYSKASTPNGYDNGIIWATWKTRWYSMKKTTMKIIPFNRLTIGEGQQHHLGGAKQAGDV
In words: ELISA; ECM protein coated at 100 nM, soluble protein 0-100 nM, one-site fit. As to the method:
(§1) ELISA plates (Medium binding, Greiner bio-one) were coated with 100 nM of ECM proteins in 50 μl of PBS for 1 h at 37° C.; human plasma fibronectin (Sigma), human vitronectin (Peprotech), human tenascin C (R&D Systems), human fibrinogen (Enzyme Research Laboratories). Then, wells were washed with PBS-T (PBS with 0.05% Tween-20) and blocked with 300 l PBS-T containing 1% BSA for 1 h at room temperature. ECM and control wells (no ECM and blocked with BSA) were further incubated 1 h at room temperature with solutions of murine PDGF-BB (Peprotech), IL-1Ra (R&D Systems), or PIGF₁₂₃₋₁₄₁-fused proteins at concentrations ranging from 0 to 100 nM (50 μl in PBS-T containing 0.1% BSA; PROKEEP tubes, Watson bio lab). Then, wells were washed 3 times with PBS-T and bound PDGF-BB and IL-1Ra variants were detected using biotinylated antibodies in PBS-T containing 0.1% BSA. Antibodies used were from PDGF-BB DuoSet ELISA (R&D Systems, DY8464) for PDGF-BB and IL-1ra/IL-1F3 DuoSet ELISA (R&D Systems, DY480) for IL-1Ra. To calculate the dissociation constants (KD) specific-binding values were fitted with a one site specific binding model using A₄₅₀ nm=Bmax*[growth factors or IL-1Ra variants]/(KD+[growth factors or IL-1Ra variants]).
(In general: ELISA stands for enzyme-linked immunosorbent assay.)

Experiment [2] addresses T2, human tenascin C (human, UniProt P24821 23-2201, limits assumed).
T2 construct: Coated on ELISA plates at 100 nM; also called TnC; Tnc
The experiment is described as above. The protocol:
as §1

The target of experiment [3] is T3, human plasma fibronectin (human, UniProt P02751-8 32-2296, limits assumed).
T3 construct: Coated on ELISA plates at 100 nM; also called Fn
T3 sequence (P02751 other isoform, or with tags, fused parts or gaps limits assumed): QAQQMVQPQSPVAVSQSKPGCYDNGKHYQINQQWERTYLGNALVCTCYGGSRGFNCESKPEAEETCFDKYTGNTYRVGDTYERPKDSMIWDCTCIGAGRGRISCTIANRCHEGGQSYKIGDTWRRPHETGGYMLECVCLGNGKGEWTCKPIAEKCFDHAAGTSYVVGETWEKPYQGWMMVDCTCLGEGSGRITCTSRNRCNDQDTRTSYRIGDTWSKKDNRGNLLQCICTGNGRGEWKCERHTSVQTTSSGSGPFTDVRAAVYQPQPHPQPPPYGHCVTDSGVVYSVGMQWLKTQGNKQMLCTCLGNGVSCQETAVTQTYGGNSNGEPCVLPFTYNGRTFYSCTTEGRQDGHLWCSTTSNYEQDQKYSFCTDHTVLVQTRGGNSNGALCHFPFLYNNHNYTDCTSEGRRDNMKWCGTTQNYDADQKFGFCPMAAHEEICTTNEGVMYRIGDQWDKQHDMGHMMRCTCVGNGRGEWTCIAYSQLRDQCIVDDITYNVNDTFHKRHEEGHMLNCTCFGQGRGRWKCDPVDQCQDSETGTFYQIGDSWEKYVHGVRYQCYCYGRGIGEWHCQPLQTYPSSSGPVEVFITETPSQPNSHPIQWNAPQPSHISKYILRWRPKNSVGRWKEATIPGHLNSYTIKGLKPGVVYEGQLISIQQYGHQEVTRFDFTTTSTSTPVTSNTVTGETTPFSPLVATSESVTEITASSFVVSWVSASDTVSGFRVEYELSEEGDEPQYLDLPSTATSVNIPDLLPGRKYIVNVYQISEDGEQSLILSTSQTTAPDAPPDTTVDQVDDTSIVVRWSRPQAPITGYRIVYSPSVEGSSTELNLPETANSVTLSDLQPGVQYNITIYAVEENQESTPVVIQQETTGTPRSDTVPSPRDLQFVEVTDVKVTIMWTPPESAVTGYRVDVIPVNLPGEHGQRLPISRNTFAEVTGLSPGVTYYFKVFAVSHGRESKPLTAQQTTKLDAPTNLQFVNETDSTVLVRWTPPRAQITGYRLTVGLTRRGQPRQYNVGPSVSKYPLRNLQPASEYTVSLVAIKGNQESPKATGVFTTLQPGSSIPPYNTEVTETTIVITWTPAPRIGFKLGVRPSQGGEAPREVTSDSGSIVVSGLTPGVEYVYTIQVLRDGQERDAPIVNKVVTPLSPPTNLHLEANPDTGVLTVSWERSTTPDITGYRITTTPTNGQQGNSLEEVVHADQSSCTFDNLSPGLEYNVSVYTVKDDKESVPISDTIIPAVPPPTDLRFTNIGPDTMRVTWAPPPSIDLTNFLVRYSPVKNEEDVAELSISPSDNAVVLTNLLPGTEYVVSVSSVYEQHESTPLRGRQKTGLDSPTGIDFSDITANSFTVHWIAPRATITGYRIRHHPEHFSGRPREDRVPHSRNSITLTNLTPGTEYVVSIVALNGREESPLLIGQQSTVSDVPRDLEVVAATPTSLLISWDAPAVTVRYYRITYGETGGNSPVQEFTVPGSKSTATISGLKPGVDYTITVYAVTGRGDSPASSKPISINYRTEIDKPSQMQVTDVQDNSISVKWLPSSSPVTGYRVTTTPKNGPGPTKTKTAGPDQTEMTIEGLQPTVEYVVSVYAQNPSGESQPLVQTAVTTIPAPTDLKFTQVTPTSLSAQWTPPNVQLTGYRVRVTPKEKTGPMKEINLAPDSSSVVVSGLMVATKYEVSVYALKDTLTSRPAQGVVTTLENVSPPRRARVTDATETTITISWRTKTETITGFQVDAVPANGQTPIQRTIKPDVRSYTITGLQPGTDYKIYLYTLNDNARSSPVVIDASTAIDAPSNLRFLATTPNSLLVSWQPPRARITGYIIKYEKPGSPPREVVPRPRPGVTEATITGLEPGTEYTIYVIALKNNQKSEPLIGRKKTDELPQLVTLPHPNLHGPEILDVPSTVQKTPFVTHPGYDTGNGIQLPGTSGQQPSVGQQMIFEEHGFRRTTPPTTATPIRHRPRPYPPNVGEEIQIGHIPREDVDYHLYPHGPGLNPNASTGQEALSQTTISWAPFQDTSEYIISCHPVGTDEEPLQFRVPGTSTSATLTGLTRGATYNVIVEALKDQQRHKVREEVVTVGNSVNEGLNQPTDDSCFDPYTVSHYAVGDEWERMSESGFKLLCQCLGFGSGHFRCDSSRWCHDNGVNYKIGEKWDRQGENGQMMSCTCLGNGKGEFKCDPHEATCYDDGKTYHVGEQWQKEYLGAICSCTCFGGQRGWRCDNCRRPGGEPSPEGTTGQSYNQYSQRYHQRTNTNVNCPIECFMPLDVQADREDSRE
Described as above. As to the method: as §1

Experiment [4] has as its target T4, human vitronectin (human, UniProt P04004 20-478).
T4 construct: Coated on ELISA plates at 100 nM; also called Vn
Described as above. The protocol:
as §1

In experiment [5] the target is T1, human fibrinogen. In words: ELISA; GST-fused fragment at 100 nM on coated ECM protein, anti-GST detection. The protocol: (§2) ELISA plates (96-Well Medium Binding, Greiner bio-one) were coated with solutions of 100 nM of human plasma fibronectin (Sigma), human vitronectin (Peprotech), human tenascin C (R&D Systems), or human fibrinogen (Enzyme Research Laboratories) in PBS for 1 h at 37° C. Wells were washed with washing buffer (PBS-T, PBS with 0.05% Tween-20) and blocked with 1% BSA in PBS-T for 1 h at room temperature. Then, wells were incubated with 100 nM of GST-fused PIGF fragments (in PBS-T with 0.1% BSA) for 1 h at room temperature. GST (100 nM) was used as negative control. Wells were washed 3 times with washing buffer and incubated with 0.1 μg/ml of HRP-conjugated antibody against GST (GE Healthcare, RPN1236V) in PBS-T with 0.1% BSA for 45 min at room temperature. Wells were washed 3 times with PBS-T and detection was done with tetramethylbenzidine substrate and measurement of the absorbance at 450 nm.

The target in experiment [6] is T3, human plasma fibronectin. Described as above. As to the method:
as §2

Experiment [7] deals with T4, human vitronectin. The experiment is described as above. The protocol: as §2
In experiment [8] the target is T1, human fibrinogen. Nature of the experiment: ELISA, one site specific binding fit.
In experiment [9] the target is T2, human tenascin C. Nature of the experiment: ELISA, one site specific binding fit.
In experiment [10] the target is T3, human plasma fibronectin. Nature of the experiment: ELISA, one site specific binding fit.
The target in experiment [11] is T4, human vitronectin. Nature of the experiment: ELISA, one site specific binding fit.
Experiment [12] has as its target T1, human fibrinogen. Nature of the experiment: ELISA of fragments.
Experiment [13] has as its target T3, human plasma fibronectin. In words: ELISA of fragments.
Experiment [14] addresses T4, human vitronectin. In words: ELISA of fragments.

Where no end group is shown, it is not given here.

T4 sequence (P04004 20-478 limits assumed): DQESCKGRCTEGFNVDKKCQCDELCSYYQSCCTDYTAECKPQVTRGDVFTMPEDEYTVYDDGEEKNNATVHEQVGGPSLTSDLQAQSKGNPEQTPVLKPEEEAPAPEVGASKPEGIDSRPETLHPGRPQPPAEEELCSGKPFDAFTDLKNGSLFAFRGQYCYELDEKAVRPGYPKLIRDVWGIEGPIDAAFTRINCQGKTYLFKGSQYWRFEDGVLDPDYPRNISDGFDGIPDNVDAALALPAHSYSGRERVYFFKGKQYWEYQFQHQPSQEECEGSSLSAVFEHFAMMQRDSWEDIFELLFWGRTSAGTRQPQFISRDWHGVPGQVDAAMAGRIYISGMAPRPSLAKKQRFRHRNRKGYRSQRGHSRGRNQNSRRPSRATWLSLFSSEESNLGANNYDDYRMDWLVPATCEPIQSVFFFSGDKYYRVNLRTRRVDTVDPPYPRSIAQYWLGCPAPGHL
T2 sequence (P24821 23-2201 limits assumed): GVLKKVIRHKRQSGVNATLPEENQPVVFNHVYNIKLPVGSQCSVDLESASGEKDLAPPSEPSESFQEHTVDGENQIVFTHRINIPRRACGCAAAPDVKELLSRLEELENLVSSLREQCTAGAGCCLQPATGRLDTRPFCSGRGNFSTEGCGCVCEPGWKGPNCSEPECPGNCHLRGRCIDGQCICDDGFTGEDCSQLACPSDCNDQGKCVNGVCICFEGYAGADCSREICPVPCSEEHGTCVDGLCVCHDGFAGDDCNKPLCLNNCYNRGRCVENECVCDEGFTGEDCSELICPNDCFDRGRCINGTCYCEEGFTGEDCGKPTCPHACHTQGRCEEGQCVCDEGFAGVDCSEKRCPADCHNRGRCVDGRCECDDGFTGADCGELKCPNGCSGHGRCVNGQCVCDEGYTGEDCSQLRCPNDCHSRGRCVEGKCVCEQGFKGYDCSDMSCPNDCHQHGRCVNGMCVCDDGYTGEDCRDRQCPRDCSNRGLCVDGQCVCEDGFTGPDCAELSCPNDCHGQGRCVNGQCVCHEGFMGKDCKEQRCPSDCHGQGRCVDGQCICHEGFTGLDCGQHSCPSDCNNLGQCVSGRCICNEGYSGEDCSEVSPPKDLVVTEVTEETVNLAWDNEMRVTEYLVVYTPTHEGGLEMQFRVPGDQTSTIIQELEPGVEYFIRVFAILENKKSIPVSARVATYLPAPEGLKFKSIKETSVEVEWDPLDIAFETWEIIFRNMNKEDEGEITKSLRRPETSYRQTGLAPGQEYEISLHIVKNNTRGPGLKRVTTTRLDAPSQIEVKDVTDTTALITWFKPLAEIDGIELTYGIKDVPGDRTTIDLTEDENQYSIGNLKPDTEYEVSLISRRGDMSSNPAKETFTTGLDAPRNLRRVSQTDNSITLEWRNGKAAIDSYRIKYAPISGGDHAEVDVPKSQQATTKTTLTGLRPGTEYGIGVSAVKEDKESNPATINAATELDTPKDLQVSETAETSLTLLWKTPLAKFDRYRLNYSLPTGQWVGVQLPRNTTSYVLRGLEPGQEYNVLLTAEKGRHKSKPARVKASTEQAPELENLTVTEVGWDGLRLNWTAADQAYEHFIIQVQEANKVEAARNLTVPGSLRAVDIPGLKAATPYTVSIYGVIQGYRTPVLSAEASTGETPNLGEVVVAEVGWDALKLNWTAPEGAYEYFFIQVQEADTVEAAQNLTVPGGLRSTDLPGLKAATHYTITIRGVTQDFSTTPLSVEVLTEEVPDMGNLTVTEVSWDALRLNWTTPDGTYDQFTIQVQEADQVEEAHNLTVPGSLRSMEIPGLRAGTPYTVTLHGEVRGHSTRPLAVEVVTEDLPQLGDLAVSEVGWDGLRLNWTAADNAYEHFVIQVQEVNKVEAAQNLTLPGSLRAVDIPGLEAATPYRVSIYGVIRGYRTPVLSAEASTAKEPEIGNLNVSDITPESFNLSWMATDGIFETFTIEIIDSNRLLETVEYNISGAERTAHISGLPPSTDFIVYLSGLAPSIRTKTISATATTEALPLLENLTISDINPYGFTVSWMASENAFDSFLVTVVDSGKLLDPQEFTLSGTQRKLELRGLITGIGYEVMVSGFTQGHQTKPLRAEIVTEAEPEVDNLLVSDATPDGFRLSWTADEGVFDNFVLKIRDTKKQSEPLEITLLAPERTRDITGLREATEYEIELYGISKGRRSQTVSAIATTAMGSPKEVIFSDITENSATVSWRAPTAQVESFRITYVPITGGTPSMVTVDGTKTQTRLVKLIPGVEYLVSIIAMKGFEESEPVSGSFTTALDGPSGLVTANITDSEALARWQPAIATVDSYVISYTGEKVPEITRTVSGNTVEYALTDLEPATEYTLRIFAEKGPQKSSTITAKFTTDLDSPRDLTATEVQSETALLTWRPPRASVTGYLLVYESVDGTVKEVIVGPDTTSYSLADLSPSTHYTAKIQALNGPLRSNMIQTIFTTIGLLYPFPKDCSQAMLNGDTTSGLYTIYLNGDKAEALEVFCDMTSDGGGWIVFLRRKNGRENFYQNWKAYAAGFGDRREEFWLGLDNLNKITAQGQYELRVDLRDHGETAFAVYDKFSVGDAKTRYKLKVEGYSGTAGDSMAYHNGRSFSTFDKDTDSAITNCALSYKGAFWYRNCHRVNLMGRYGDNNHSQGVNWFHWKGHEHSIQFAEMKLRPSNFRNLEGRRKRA

B1: IL-1Ra/PIGF123-141 (other)
chain: MNHKVHHHHHHMRPSGKRPCKMQAFRIWDTNQKTFYLRNNQLIAGYLQGPNIKLEEKIDMVPIDLHSVFLGIHGGKLCLSCAKSGDDIKLQLEEVNITDLSKNKEEDKRFTFIRSEKGPTTSFESAACPGWFLCTTLEADRPVSLTNTPEEPLIVTKFYFQEDQRRRPKGRGKRRREKQRPTD
Usually Kd stands for the free concentration of one partner at which half of the binding sites on the other are occupied at equilibrium, for simple one-to-one binding. Higher therefore signals lower affinity. As for B1, the Kd in [1] turned out to be 0.0435 µM; in experiment [2], 0.0207 µM; in [3], 0.0219 µM; in experiment [4] it was 0.0007 µM.

B2: IL-1Ra (murine wild-type interleukin-1 receptor antagonist) (ligand)
chain: MRPSGKRPCKMQAFRIWDTNQKTFYLRNNQLIAGYLQGPNIKLEEKIDMVPIDLHSVFLGIHGGKLCLSCAKSGDDIKLQLEEVNITDLSKNKEEDKRFTFIRSEKGPTTSFESAACPGWFLCTTLEADRPVSLTNTPEEPLIVTKFYFQEDQ
notes: also called wild-type IL-1Ra; IL-1 receptor antagonist
Regarding B2, the Kd in [1] was 0.663 µM; in experiment [2], 0.113 µM; in experiment [3] it was 0.129 µM; in experiment [4] it was 0.0732 µM.

B3: PDGF-BB/PIGF123-141 (other)
chain: SLGSLAAAEPAVIAECKTRTEVFQISRNLIDRTNANFLVWPPCVEVQRCSGCCNNRNVQCRASQVQMRPVQVRKIEIVRKKPIFKKATVTLEDHLACKCETIVTPRPVTRRRPKGRGKRRREKQRPTD
notes: not shown: 6x histidine tag at the N-terminus
B3: the Kd is 0.0167 µM in experiment [1], 0.025 µM in [2], 0.0177 µM in experiment [3] and 0.0014 µM in experiment [4].

B4: PDGF-BB (murine wild-type platelet-derived growth factor-BB) (ligand, UniProt P31240 82-190, looked up)
chain: SLGSLAAAEPAVIAECKTRTEVFQISRNLIDRTNANFLVWPPCVEVQRCSGCCNNRNVQCRASQVQMRPVQVRKIEIVRKKPIFKKATVTLEDHLACKCETIVTPRPVT
notes: also called wild-type PDGF-BB
Turning to B4, the Kd in [1] was 0.206 µM; in experiment [2] it was 0.0943 µM; in experiment [3], 0.0675 µM; in experiment [4], 0.0321 µM.

B5: GST-fused PIGF123-141 fragment (peptide)
chain: RRRPKGRGKRRREKQRPTD-6xHis
modifications: not fully specified (N-terminus); also: fused to GST (vector linker letters not given here)
notes: Expressed in E. coli BL21 (DE3), purified on GSTrap and then HisTrap, and used at 100 nM in the ELISA; not shown: glutathione S-transferase (GST) encoded by the expression vector pGEX6P-1; histidine tag (6xHis) added at the C-terminus of the fragment
As to B5, the binding result in experiment [5], in experiment [6] and in experiment [7] was “binds” each time.

B6: Placenta growth factor-2 (PIGF-2) (ligand)
chain: LPAVPPQQWALSAGNGSSEVEVVPFQEVWGRSYCRALERLVDVVSEYPSEVEHMFSPSCVSLLRCTGCCGDENLHCVPVETANVTMQLLKIRSGDRPSYVELTFSQHVRCECRPLREKMKPERRRPKGRGKRRREKQRPTDCHLCGDAVPRR
Turning to B6, the Kd in experiment [8] amounted to 0.0099 µM; in experiment [9] it was 0.0166 µM; in experiment [10], 0.0116 µM; in experiment [11], 0.0139 µM.

B7: neurturin (NRTN) (ligand, UniProt Q99748 96-197, looked up)
chain: ARLGARPCGLRELEVRVSELGLGYASDETVLFRYCAGACEAAARVYDLGLRRLRQRRRLRRERVRAQPCCRPTAYEDEVSFLDAHSRYHTVHELSARECACV
For the molecule B7, the Kd came out at 0.0502 µM in experiment [10] and 0.0276 µM in experiment [11].

B8: amphiregulin (AREG) (ligand, UniProt P15514 101-198, looked up)
chain: SVRVEQVVKPPQNKTESENTSDKPKRKKKGGKNGKNRRNRKKKNPCNAEFQNFCIHGECKYIEHLEAVTCKCQQEYFGERCGEKSMKTHSMIDSSLSK
As for B8, the Kd was found to be 0.0082 µM in [8], 0.0368 µM in experiment [9], 0.0086 µM in experiment [10] and 0.0138 µM in experiment [11].

B9: NRTN146-157 fragment (GST-fused construct from pGEX6P-1) (peptide)
chain: RRLRQRRRLRRE
modifications: also: fused to GST (vector linker letters not given here), letters not given here
notes: Cloned into pGEX6P-1, expressed in E. coli BL21, and purified on GSTrap and His-tag columns; not shown: GST encoded by the expression vector pGEX6P-1; a His tag is implied by purification on a His-tag HP column
B9: the binding result in experiment [12], in experiment [13] and in experiment [14] was “binds” each time.

B10: AREG126-138 fragment (GST-fused construct from pGEX6P-1) (peptide)
chain: RKKKGGKNGKNRR
modifications: also: fused to GST (vector linker letters not given here), letters not given here
notes: as for B9
On to B10, for which the binding result in [12], in [13] and in experiment [14] was “binds” throughout.
